Data on 3 molecules can be found in article PMC10864110.

This data set has as its target GST-PC4 WT (Homo sapiens, UniProt P53999 2-127). As to the kind of experiment: EMSA.

B1: LINC00869 dsDNA (dsDNA)
DNA 1: TGTAAAGGGTGAGGCATATGAGGCTGCGGCGGGGCGGAGGGGCGTGAGCTTATACTTATGTTTATCTGGCAGAAGAAATGTTATG
DNA 2: CATAACATTTCTTCTGCCAGATAAACATAAGTATAAGCTCACGCCCCTCCGCCCCGCCGCAGCCTCATATGCCTCACCCTTTACA
As to B1, the binding result is reported as “no binding”.

B2: CCND1 dsDNA (dsDNA)
DNA 1: CAGTAGCAGCGAGCAGCAGAGTCCGCACGCTCCGGCGAGGGGCAGAAGAGCGCGAGGGAGCGCGGGGCAGCAGAAGCGAGAGCCG
DNA 2: CGGCTCTCGCTTCTGCTGCCCCGCGCTCCCTCGCGCTCTTCTGCCCCTCGCCGGAGCGTGCGGACTCTGCTGCTCGCTGCTACTG
Take B2: the binding result is on record as “no binding”.

B3: WDR74 dsDNA (dsDNA)
DNA 1: CGTTCCTGGAAGTACTGCAATACCAGGTCGATGCGTGGAGTGGACGGAGCAAGCTCCTATTCCATCTCCTATTTCCAAAAATCCA
DNA 2: TGGATTTTTGGAAATAGGAGATGGAATAGGAGCTTGCTCCGTCCACTCCACGCATCGACCTGGTATTGCAGTACTTCCAGGAACG
Regarding B3, the binding result was “no binding”.
